T1: human CD70 expressed on parental (WT) Jurkat cells (human, UniProt P32970 1-193)
T1 sequence: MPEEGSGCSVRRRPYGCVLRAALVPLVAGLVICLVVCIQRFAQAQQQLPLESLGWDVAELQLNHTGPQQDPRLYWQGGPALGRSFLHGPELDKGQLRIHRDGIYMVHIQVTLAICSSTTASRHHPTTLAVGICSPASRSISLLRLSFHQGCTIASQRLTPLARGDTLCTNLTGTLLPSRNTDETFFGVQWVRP

T2: recombinant biotinylated human CD70 protein (human) (UniProt P32970)
T2 sequence (chain, biotinylated (site not stated)): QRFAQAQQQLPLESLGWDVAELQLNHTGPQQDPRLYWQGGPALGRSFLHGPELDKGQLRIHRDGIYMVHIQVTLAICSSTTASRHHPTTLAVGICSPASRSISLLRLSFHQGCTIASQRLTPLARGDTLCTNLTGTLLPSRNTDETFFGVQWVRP

T3: recombinant human CD70 (AviTag, polyhistidine tag and chicken tenascin trimerization domain fused to the … (chicken; human, UniProt P10039 110-139, limits assumed)
T3 construct: domain: trimerization domain; Expressed in Expi293, purified by IMAC and SEC; Copies 3 is inferred from the trimerization domain; not shown: AviTag; polyhistidine tag
T3 sequence: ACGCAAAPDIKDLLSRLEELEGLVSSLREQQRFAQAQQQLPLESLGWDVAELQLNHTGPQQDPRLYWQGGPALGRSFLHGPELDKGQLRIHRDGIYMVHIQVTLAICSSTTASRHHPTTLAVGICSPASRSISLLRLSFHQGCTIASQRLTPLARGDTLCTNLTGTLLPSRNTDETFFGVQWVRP

B1: 72C2 CD70-specific CAR (other)
chain: QVQLVQSGAEVKKPGSSVKVSCEASGGTFITYAISWVRQAPGQGLEWMGGIIPFFGTANYAQKFQGRVTITADKSTSTASMELRSLRSEDTAMYYCAQWELFFFDFWGQGTPVTVSSGGGGSGGGGSGGGGSGGGGSEIVMTQSPDTLSVSPGERAILSCRASQSVSSNLAWYQQKPGQAPRLLIYSASTRASGIPARFSGSGSGTEFTLSISSLQSEDFAVYYCQQYDNWPPLTFGGGTKVEIKTTTPAPRPPTPAPTIASQPLSLRPEACRPAAGGAVHTRGLDFACDIYIWAPLAGTCGVLLLSLVITLYCKRGRKKLLYIFKQPFMRPVQTTQEEDGCSCRFPEEEEGGCELRVKFSRSADAPAYQQGQNQLYNELNLGRREEYDVLDKRRGRDPEMGGKPRRKNPQEGLYNELQKDKMAEAYSEIGMKGERRRGKGHDGLYQGLSTATKDTYDALHMQALPPR
B2: P08A02 anti-CD70 scFv-Fc fusion (Fc fusion)
chain: EVQLVQSGAEVKKPGESLKISCKGSGYTFTNYWIAWVRQMPGKGLEWMGIIYPDGSDTRYSPSFQGQVTISADKSISTAYLQWSSLKASDTAMYYCARDITSWYYGEPAFDIWGQGTLVTVSSGGGGSGGGGSGGGGSGGGGSELQSVLTQPPSASGTPGQRVTISCSGSSSNIGSNYVYWYQQLPGTAPKLLIYRNNQRPSGVPDRFSGSKSGTSASLAISGLRSEDEADYYCATWDDSLGSPVFGTGTKLTVL
notes: scFv-Fc expressed in Expi293; not shown: part of the hinge and Fc from a modified human IgG2
B3: P02B10 anti-CD70 scFv-Fc fusion (Fc fusion)
chain: EVQLLESGGGLVQPGGSLRLSCAASGFAFSNYAMSWVRQAPGKGLEWVSAIRGGGGSTYYADSVKGRFTISRDNSKNTLYLQMNSLRAEDTAVYYCARDFISGTWYPDYWGQGTLVTVSSGGGGSGGGGSGGGGSGGGGSELQSVLTQPPSASGTPGQRVTISCSGSSSNIGSNYVYWYQQLPGTAPKLLIYRNNQRPSGVPDRFSGSKSGTSASLAISGLRSEDEADYYCAAWDDSLSGVVFGGGTKLTVL
notes: as for B2
B4: P07D03 anti-CD70 scFv-Fc fusion (Fc fusion)
chain: EVQLVQSGAEVKKPGESLKISCKGSGYRFTSYWIGWVRQMPGKGLEWMGSIYPDDSDTRYSPSFQGQVTISADKSISTAYLQWSSLKASDTAMYYCASSTVDYPGYSYFDYWGQGTLVTVSSGGGGSGGGGSGGGGSGGGGSELQSVLTQPPSASGTPGQRVTISCSGSRSNIGSNYVYWYQQLPGTAPKLLIYRNNQRPSGVPDRFSGSKSGTSASLAISGLRSEDEADYYCASWDGSLSAVVFGTGTKLTVL
notes: as for B2

Key:
[1] = biological target: T1, human CD70 expressed on parental (WT) …; assay: cell-based or functional assay
[2] = biological target: T2, recombinant biotinylated human CD70 protein (human); assay: flow cytometry: CAR-transduced Jurkat cells incubated with recombinant biotinylated human CD70, streptavidin-PE; percent of cells binding
[3] = biological target: T3, recombinant human CD70 (AviTag, …); assay: SPR (Biacore 8K, 37 C): CD70 captured via anti-AviTag antibody on C1 chip, scFv-Fc as analyte; 1:1 steady state affinity fit (SS KD)
Procedure: The antibody binding kinetics were determined by surface plasmon resonance (Biacore 8K, GE Healthcare Bio-Sciences, Pittsburgh Pa.) at 37° C. in HBS-T+ (0.01 M HEPES pH 7.4, 0.15 M NaCl, 0.05% v/v Tween20, 1 mg/mL BSA). Recombinant human CD70 diluted in HBS-T+ was captured on a C1 chip immobilized with an anti-AviTag™ antibody. Purified anti-CD70 scFv-Fc fusions were serially diluted into HBS-T+, injected at 30 uL/min for 2-4 min, dissociation monitored for 10 min then the surface regenerated with 75 mM phosphoric acid between injections. Buffer cycles were collected for each anti-CD70 scFv-Fc fusion for double-referencing purposes (double-referencing as described in Myszka, D. G. Improving biosensor analysis. J. Mol. Recognit. 12, 279-284 (1999)). Kinetic association rates (kₒₙ) and dissociation rates (koff) were obtained simultaneously by fitting the double-referenced sensorgrams globally to a 1:1 Langmuir with mass transport model using Biacore 8K Evaluation Software (GE Healthcare Bio-Sciences, Pittsburgh Pa.) then used to calculate an equilibrium dissociation constant (KD) from the kinetic rate constants (KD=koff/kₒₙ). The data was fit to a 1:1 steady state affinity model using Biacore 8K Evaluation Software to determine a steady state equilibrium dissociation constant (SS KD) as needed.

| Binder | Activation ratio (WT/KO) [1] | Protein binding (%) [2] | Kd [3] |
| --- | --- | --- | --- |
| B1 | 6.18 | 0.09% | – |
| B2 | – | – | 1200 nM |
| B3 | – | – | 355 nM |
| B4 | – | – | 1070 nM |

From patent publication US20190233528A1 (published 2019)
